From patent US20050058649A1 (published 2005)
Positions count from the first letter of the chain named.

T1: phospholipase A2 (PLA2) (Homo sapiens (Human), UniProt O15496 43-165)
T1 sequence: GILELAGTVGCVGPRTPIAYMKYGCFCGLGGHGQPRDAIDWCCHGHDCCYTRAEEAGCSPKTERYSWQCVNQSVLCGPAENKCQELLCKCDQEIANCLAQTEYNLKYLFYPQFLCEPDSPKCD

B1: anti-PLA2 mAb 2.15 (antibody, IgG4, V domains shown)
VH: QVQLVESGGGVVQPGRSLRLSCAASGFTFSSYGMHWVRQAPGKGLEWVAVIWYDGSNKYYADSVKGRFTISRDNSKNTLYLQMNSLRAEDTAVYYCARRDWNYAFDIWGQGTMVTVSS
VL: DIQMTQSPSSLSASVGDRVTITCRASQSISNYLNWYQQKPGKAPKFLIYAASSLQSGAPSRFSGSGSGTDFTLTISSLQPEDFATYYCQQSYSTPITFGQGTRLEIKR
B2: anti-PLA2 mAb 2.23 (antibody, IgG4, V domains shown)
VH: QVQLEESGGGVVQPGRSLRLSCAASGFTFSSYGMHWVRQGPGKGLEWVAVIWYDGSNKKYADSVKGRFTISRDNSKNTLYLQMNSLRAEDTAVYYCARDGPIFGVVMGYWGQGTLVTVSS
VL: B1 VL with A25T, Y36F, K45I, F46L, A58V, Q89H, T94I
B3: anti-PLA2 mAb 1.27 (antibody, IgG2, V domains shown)
VH: EVQLVQSGAEVKKPGESLKISCKGSGYSFTSYWIGWVRQMPGKGLEWMGIIYPGDSDTRYSPSFQGQVTISADKSISTAYLQWSSLKASDTAMYYCARSWTYGMDVWGQGTTVTVSS
VL: EIVLTQSPGTLSLSPGERATLSCRASQSVRSNYLTWYQQKPGQAPRLLIYGASTRATGIPDRFSGSGSGTDFTLTISRLEPEDFAVYYCQQYGSSPLTFGGGTKVEIKR
B4: anti-PLA2 mAb 1.14 (antibody, IgG2, V domains shown)
VH: B3 VH with F29I, S99H, W100S, T101G, Y102S, G103S, M104F, V106Y, T112L
VL: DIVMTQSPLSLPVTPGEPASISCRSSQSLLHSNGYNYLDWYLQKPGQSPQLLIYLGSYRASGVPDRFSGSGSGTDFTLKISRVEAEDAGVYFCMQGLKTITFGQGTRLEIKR
B5: anti-PLA2 mAb 1.5 (antibody, IgG2, V domains shown)
VH: B3 VH with T30I, S99H, T101S
VL: B3 VL with N32G, T35A, K40R, L47F, T54S
notes: also called 1.5.1
B6: anti-PLA2 mAb 1.7 (antibody, IgG2, V domains shown)
VH: B3 VH with T30I, G103A, M104L, T112A
VL: B3 VL with A25P, I76V
notes: also called 1.7.1
B7: anti-PLA2 mAb 1.18 (antibody, IgG2, V domains shown)
VH: EVQLVQSGAEVKKPGESLKISCKGSGYSFTNYWINWVRQMPGKGLEWMGIIYPGDSDTRYSPSFQGQVTISADKSISTAYLQWSSLKASDTAMYYCARHRLGFDYWGQGTLVTVSS
VL: DIQMTQSPSSLSASVGDRVTITCRASQGIRNDLDWCQQKPGKAPKRLIYAASSLQSGVPSRFSGSGSGTEFTLTISSLQPEDFATYYCLQHNNYPPTFGQGTKVEIKR
B8: anti-PLA2 mAb 1.21 (antibody, IgG2, V domains shown)
VH: B7 VH with S28R, N31S, N35S, L101E, G102A, Y105I, L111M
VL: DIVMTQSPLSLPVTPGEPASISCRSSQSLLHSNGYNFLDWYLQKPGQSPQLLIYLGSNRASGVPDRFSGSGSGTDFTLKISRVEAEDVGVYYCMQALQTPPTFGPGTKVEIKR
B9: anti-PLA2 mAb 2.19 (antibody, IgG4, V domains shown)
VH: QVQLVESGGGVVQPGRSLRLSCAASGFTFSSYGMHWVRQAPGKGLEWVAAIWYDGSNKWYADSVKGRFTISRDNSKNTLYLQMNSLRAEDTAVYYCARGGTGTPGAFDIWGQGTMVTVSS
VL: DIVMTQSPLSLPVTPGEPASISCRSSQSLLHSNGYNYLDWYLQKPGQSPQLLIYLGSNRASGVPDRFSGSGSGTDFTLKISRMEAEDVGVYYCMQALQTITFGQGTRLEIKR
notes: also called 2.19.1
B10: anti-PLA2 mAb 2.7 (antibody, IgG4, V domains shown)
VH: GVQLVQSGAEVKKPGESLKISCKGSGYSFTNYWIGWVRQMPGKGLEWMGIIYPGDSDTRYSPSFQGQVTISADKSISTAYLQWSSLKASDTAIYYCARGGVGAFDIWGQGTMVTVSS
VL: EIVLTQSPGTLSLSPGERATLSCRASQIIRRSSLAWYQEKPGQAPRLLIYGASSRATGIPDRFSGSGSGTDFTLTISRLEPEDFAVYYCQQYGSSPPFTFGPGTKVDIKR
notes: also called 2.7.1

The binders below were run against T1, phospholipase A2 (PLA2) (assay: cell-based or functional assay).

Binder	IC50 of inhibition of PLA2 enzyme activity (12-point dose curve)
B1	14.3 nM
B2	14.4 nM
B3	9.4 nM
B4	3.9 nM
B5	2.36 nM
B6	4.73 nM
B7	0.78 nM
B8	3.64 nM

What follows are binders tested against T1, phospholipase A2 (PLA2) (assay: Biacore 2000, captured Ab, global 1:1 fit).
Procedure: (§1) In the immobilization, HBS-P was used as the running buffer; in the binding studies, HBS-P, with 12 mg/mL of each BSA and dextran, was used as sample and running buffers.
Data were normalized based on the individual antibody capture levels and fit globally to a 1:1 interaction model.

Binder	Kd	koff	kon
B1	100 nM	0.000902 s⁻¹	8880 M⁻¹ s⁻¹
B2	120 nM	0.000969 s⁻¹	8270 M⁻¹ s⁻¹
B9	6.2 nM	0.000115 s⁻¹	18600 M⁻¹ s⁻¹
B3	27 nM	0.000922 s⁻¹	34500 M⁻¹ s⁻¹
B4	18 nM	0.000791 s⁻¹	43900 M⁻¹ s⁻¹
B5	15 nM	0.000713 s⁻¹	48700 M⁻¹ s⁻¹
B6	9.5 nM	0.000451 s⁻¹	47400 M⁻¹ s⁻¹
B7	50 nM	0.00192 s⁻¹	38600 M⁻¹ s⁻¹
B8	11 nM	0.00063 s⁻¹	57100 M⁻¹ s⁻¹
B10	10 nM	0.00104 s⁻¹	99600 M⁻¹ s⁻¹

What follows are binders tested against T1, phospholipase A2 (PLA2) (assay: Biacore 2000, Ab captured from supernatant, 300 nM PLA2).
Procedure: as §1
Briefly, antibody supernatants were diluted 1/10 and antibodies were captured individually on the IgG surfaces. After a one-minute wash step, buffer and PLA2 (300 nM) were injected serially (one-minute association, five minute dissociation) over each surface. Capture levels were measured from −20 to 0 seconds and the surfaces were regenerated with a 6-second pulse of 100 mM H₃PO₄.

Binder	Response
B1	37 RU
B2	7 RU
B9	52 RU
B3	78 RU
B4	74 RU
B5	70 RU
B6	118 RU
B7	6 RU
B8	61 RU
B10	126 RU
